Our source for the Kd values is PMC2621343, “Ca^2+ Extrusion by NCX Is Compromised in Olfactory Sensory Neurons of OMP^−/− Mice” (PLoS ONE, 2009).

As a reminder, the Kd is the equilibrium constant for the complex coming apart.

Settings in all cases: both partners purified
Test [1] has as its target T1, Bovine calmodulin (bovine, UniProt P62157 1-149).
T1 construct: calmodulin, bovine, purchased from Sigma; the methods say bovine calmodulin purchased from Sigma; also called CaM; recombinant calmodulin (CaM); source: bought: Sigma
In words: SPR; XIP peptide immobilised on CM5 chip (about 700 RU, carbodiimide chemistry); CaM 10, 25, 50, 100, 250 nM flowed over; Biacore 3000; running buffer NaCl 150 mM, HEPES 10 mM, CaCl2 0.1 mM, pH 7.4; 5 µl/min for 2 minutes; 1:1 Langmuir binding model. (SPR reads the build-up and loss of mass on a sensor chip optically.)

For test [2], the target named is T2, recombinant rat OMP (olfactory marker protein) (rat, UniProt P08523 1-163).
T2 construct: olfactory marker protein, rat, recombinant
T2 sequence (looked up): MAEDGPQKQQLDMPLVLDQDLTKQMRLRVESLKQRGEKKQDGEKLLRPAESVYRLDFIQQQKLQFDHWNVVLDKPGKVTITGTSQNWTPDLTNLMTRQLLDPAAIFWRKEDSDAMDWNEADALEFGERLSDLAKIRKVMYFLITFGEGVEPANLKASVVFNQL
As to the kind of experiment: SPR; data not shown; peptide immobilised on CM5 chip; OMP flowed over (0-500 nM by the methods), running buffer in the absence or presence of 0.1 mM Ca2+; interaction Ca2+-independent.

Test [3] has as its target T1, Bovine calmodulin. In words: SPR; Bex1 (50-75) peptide immobilised on CM5 chip; CaM 31.25, 62.5, 125, 250, 500 nM flowed over; running buffer with 0.1 mM Ca2+; steady-state analysis of equilibrium response, nonlinear 1:1 binding isotherm.

B1: XIP peptide (NCX1 251-271) (peptide)
peptide: RRLLFYKYVYKRYRAGKQRGM
notes: Immobilised on a CM5 chip by carbodiimide chemistry; also called XIP regulatory-peptide of NCX; source: synthetic peptide, HPLC purified
Take B1: the results for the Kd (with Bovine calmodulin [1]; in test [2]) were 20 ± 6 nM and 700 nM, respectively.

B2: CaM binding peptide of Bex1 (Bex1 50-75) (peptide)
peptide: RGGRRRFRVRQPIAHYRWDLMQRVGE
notes: Immobilised on a CM5 chip by carbodiimide chemistry; also called Bex1 peptide; Bex1 (50–75) peptide; source: synthetic peptide, HPLC purified
Turning to B2, the results for the dissociation constant Kd (in the test with Bovine calmodulin [3]; in test [2]) were 280 nM and 90000 ± 12000 nM, respectively.
